Measurements reported in the DeepSol protein solubility set.

Assay: soluble on expression in E. coli; label from the status in PepcDB or PDB records

Sequence	soluble on expression in E. coli
MPMNTTGMSFSSFGISCHRENSFRNSFRGKNDEVVKCSIGERTISFSVRKFSGNILETVRRQSTKDIDEWIKDERIVYPSRVINQEIDNYCFQKNAKISTEERQRVFFLVSQENQLTLDVKAAQSSINHVIMGSASFGKKMDALCDGMSRDVKNRTSDTIANLLADKFYQKHIDSDIDIVKLRNDIPDYLMRAIQG	not soluble
MSLELTTQDIQLQQHFANKQAAIQGLAHALTAKGLVAEGYAQGMLNREAQHSTYLGNGIAIPHGTTDTRELVKQTGVTAMHFPQGLDWGDGNLVYVAIGIAAKSDEHLGILKQLTRVLSADGVEQALQQAKTAQQIIAIIKGEAQLTADFDASLIQLQFPASDMVQMSAVAGGLLKNTGCAENEFVADLVTKAPTHLGRGLWLVASDRAVKRTGMSIVTTANHCEYEQQAVKALIAFSVCNDVHQPLLNTITQCVFEQKQDQLLQADVQQLLNLFSGNAEQTIAQRTIAVGTITEETIAAETVAEPDSARAHTATFRIKNSHGLHARPGAMLVAEAKKFESNIRVSNLDGDGQVVNAKSLMKVIALGVKHNHQLQFTAEGPDAEAALQALGVAINAGLGEGHHHHHH	soluble
GSMADEALFLLLHNEMVSGVYKSAEQGEVENGRCITKLENMGFRVGQGLIERFTKDTARFKDELDIMKFICKDFWTTVFKKQIDNLRTNHQGIYVLQDNKFRLLTQMSAGKQYLEHASKYLAFTCGLIRGGLSNLGIKSIVTAEVSSMPACKFQVMIQKL	soluble
MKSIVGVYETPQETIAAIEGLLTKGYDSDDISVVTSRRDTDYLESRTGTEVNQAIDAHQDESESFFDKLKDYFTMDDTATHSKALSDLDIKTDEIDKYQEDLDDGKLLVAVDTDADVIAPIDNGNALSGGFSSTNELDYTTKEEKTMPLREEQLKVDKEDVQTGEVEIGKEVKTEKRDMDIPVRHDEIYVERRPVDENKTDAAPVNDSEEIRVPIVEEKLEVTKKPVVTDEVVVGKRTVEENEHISETVKKEEPRLNKEGKVDGLDDDPLNNQMKIIDRQPKNLKSLEHHHHHH	soluble
MQSHTFTRSRGVPIYMNGSVSHQRLYDRLSEPSTSRQLPRSISLAPTGHHRTGSTRIDREQVDTSLPVTYIPRFHDESAVRRMNYRQIPGTDIRMSKIGFGAAAIGGMFGNVEDSIIKIVETAIKQGINYIDTGYWYSQSRSESILGKALSKIPRKAYYISTKVGRFELDYARTFDFRADKILESLTNSLKRLQLTYIDICYVQIHDADFAPNESIVLYETLQALEMAKSSGKIRHIGLTGYPLGKLVYSFRYVWNAPKLYFSVNLSITRNIAVINSGALCWGLLTEKGPPPWHPASDEIKEACLAATTYCSSKNISISKLALDYALNFPNVICCLVGMDSVQQVLDNLELSNFSRITDVEQRVRDRIMRRYLDRLENAGWEGVDVAQYWKKLKKLGLTALATHRHSSVESLASTLNGFSLYSSNSSSELRTPRRRRPF	not soluble
LSNGQGSRVLHVVQTLYPFSSVTEEELNFEKGETMEVIEKPENDPEWWKCKNARGQVGLVPKNYVVVLSDGPALHPAH	soluble
MSLKVYVVKKGYRPGIYHSWPEAEEQVKGFPGAEYKSFSNIMEALDYQQMDPEDALKALQGAEDKLQAAIAKVRQGGSKKKQAESQKEFAASSKYAAHIFTDGGCRNNGTHKGGHVQADDKAAWAYLIEYGGQKLSASGGRFGATNNEMEMTAFLESLKKLEELGLNDQPLLFSLDSQYVIKAVSDNDQGPAWIKGWQRRGWKKADGSPVANRELWQEIAKEMAKFAQPEFEWVKGHANSAGNNFVDGLLNKYMDQEGHHHHHH	soluble
MSYNSIRLPQDLPIYYKNFFPVKPFTKWLCYGQNYGDYFNRREFTFILADDVHIRYRSYNDEHSFVKALSSTNPEKLDIGAVYNHEPINNKRYTDYQAVERELVFDIDLTDYDPVRNCCKDATVCPKCWKFMVLAVRILDFQLEEMFNFKARMWVFSGRRGVHCWVGDKKARMLNNNQRSAIATRLNLFKKNGQCEVTEGRAKLTRVPPTVRDAFNVALKDGVFEKMIYEQGWLDNDRFIIDYQYMSEFGRDDLRRISESFKTPQERWHMLRGLFDNDYRKTLSQNDGLLDFVNNARSRPKKVLLYFVLQRCYPRLDANVTTGTNHLLKSPFCIHPKTGNVAVPLNVEKIGEFDVSKCPRIDHVVEELSSLLTERGNDGDEDSKNRKFLAYKHGALSPYVENFEMFVSACIS	not soluble
MAPPTTIRTRDQALAPLATLDSQTNCRLKELVQWECQFKGAEYVCSPFKRLFEHCIAPDKSATNYEVTDTYTNS	not soluble
MAHHHHHHVDDDDKMVSTTPAAGVLDTSVFIATESGRQLDEALIPDRVATTVVTLAELRVGVLAAATTDIRAQRLATLESVADMETLPVDDDAARMWARLRIHLAESGRRVRINDLWIAAVAASRALPVITQDDDFAALDGAASVEIIRV	soluble
MSLAKLTINDIAKKAKTSKTTVSFYLNGKFDKMSPDTKRRIEQVIEETNYSPNIMARSLKLKKSNLIGVVVADITNPFSSNIVKGIGEITRRKGYQILVGSTNLDYYNEEEYFKKMLDMGVDGFIVQPTKNFDKLYPAIKNKGKKIVVLDSVSSRYTGKWVKTNNYEIVYEAVLKLAEKGYEEFILVTEAPDKLAARMERKTGFEDAVNKINCKSFIEIINENTEVDEIAEMLKINISNNKKTVIFAINGKILQKVFKAVKMEGFDVPNHVGIIGFDKWDWTMYASPSVTTIDQPTYEEGKYAAKMLIEMIEENDDFYKSEVFDCNINWEESTDEGHHHHHH	soluble
EPAQVRLLSSDFVLPGKHQRLAGWAREAGVELRGLRLGIGEAPPGEWLDGGNLLILDTPRPTDRAQVEEALGERLQGGTQPWIRVGGGPPGFGNLPAALGGRLVGYYANGGEANLRRLFEAVRRWHAGLTVDALPAPQPLAQAGFYHPDAPAPFAVLADYLAWGASRWASDAPRIAFLIPRGAIADAQTGAIDELLRRSERHGQAPLAVWFDDSDPEALRKSFAGADVQALVNLQHLQNGPARRAEFLALDVPVLQTLGYRDGNEADWLAAASGVAPRTAAAFLGMPETWGMSDPLVISALENGEPKLMAGQAEALLDKLDRLLRLRRLPAADKHLALMFWNHPEGEKNVAASHLNVPASLARLGEALRAAGYRVATSDESALIDTAQRLLGGYYRPQTLDALYRDGLAASLPLDAYLHWFEALPADLREEMRARWGDPRRHWALRDIDGQRRFVFPAARLGNLLLLPQPPRAGRPGEAYHDSAVPPDHLYLAVYQFVREGFGADALIHFGTHGTQEWLPGKDRGLAVGDYPLRALGDLPVFYPYIQDNVGEAIQARRRGRAVTVSHQTPSFAPAGLYDELRDLHQLIHEYQQLDEGAVRERSAEQIRAAVRAAHMNDDLGWSEAAMHEDFPAFLGVLHDHLHRLAGSAMPLGLHTFGVAASPELRLGTVMQQLGEPYYRALGLDPDELFAADFRALREGRAYRTLQRYLRDGGEIAKVADPRLREQLLRARELDRQLADTGELEALLAGLAGRFVAPGPGGDPIRNPQVPSGRNLFAFEADKVPTRAAYEAGAEAFGQLLESYRAEHQGRAPEKLAFSLWSSETMRHLGIVESQALHALGLRPRWDAGGRLLALDIVPAAELGRPRVDVVLQVTSVYRDQFDGFMRLLAEAIERLAALDEPGNPLARNSQALERRLRERGVEAPLAQRLSRLRLFGNAPGDYGTGVTQLTLDSTRWDDDSALAEQFLGRLQYAYGSRDWGVKLDGGNLFAEQLKGVQAAILSRSSTLNGVLSTDHPFEYLGGLSLAVRHLDGASPALYIADLRQRQPRTTAAAQFLASELRGRYLSPQWIAAMQREGYAGSLEMLDLANNLWGWQAADRIMVRADQWQALHDTFVMDRRELGLAEWFETHNPTAQAQIIARMAEAIRKGYWDASEQTRRELAERWRQLAAAGAGEVGAATTREFIERMAGGFGEAAAQAEGAAASGAGETVSGRVLEEVAPPPSGEPQ	not soluble
MNDIAHNLAQVRDKISAAATRCGRSPEEITLLAVSKTKPASAIAEAIDAGQRQFGENYVQEGVDKIRHFQELGVTGLEWHFIGPLQSNKSRLVAEHFDWCHTIDRLRIATRLNDQRPAELPPLNVLIQINISDENSKSGIQLAELDELAAAVAELPRLRLRGLMAIPAPESEYVRQFEVARQMAVAFAGLKTRYPHIDTLSLGMSDDMEAAIAAGSTMVRIGTAIFGARDYSKK	soluble
KLKARSIKIQRRMDAILLRMPIFGDIVRKGTIARWGRTTATLIAAGVPLVDVLDSTAGAAGNLIYEEATREIRTRVIQGLSMTSGMRATELFPNMMLQMSSIGEESGSLDDMLNKAAEFYEDEVDNAVGRLSAMMEP	not soluble
